From paper PMC11550485 (Science (New York, N.Y.), 2023) come the findings set out here.

The target in this experiment is 6×His-GFP-tau (human, UniProt P10636-8 1-441). Kind of experiment: pull-down.

B1: GST-TRIM11 (natural protein, human, UniProt Q96F44 1-468, looked up)
chain: MAAPDLSTNLQEEATCAICLDYFTDPVMTDCGHNFCRECIRRCWGQPEGPYACPECRELSPQRNLRPNRPLAKMAEMARRLHPPSPVPQGVCPAHREPLAAFCGDELRLLCAACERSGEHWAHRVRPLQDAAEDLKAKLEKSLEHLRKQMQDALLFQAQADETCVLWQKMVESQRQNVLGEFERLRRLLAEEEQQLLQRLEEEELEVLPRLREGAAHLGQQSAHLAELIAELEGRCQLPALGLLQDIKDALRRVQDVKLQPPEVVPMELRTVCRVPGLVETLRRFRGDVTLDPDTANPELILSEDRRSVQRGDLRQALPDSPERFDPGPCVLGQERFTSGRHYWEVEVGDRTSWALGVCRENVNRKEKGELSAGNGFWILVFLGSYYNSSERALAPLRDPPRRVGIFLDYEAGHLSFYSATDGSLLFIFPEIPFSGTLRPLFSPLSSSPTPMTICRPKGGSGDTLAPQ
Consider B1, for which the binding result is reported as “binds”.
